# From patent US20150174203A1 (ICAHN SCHOOL OF MEDICINE AT MOUNT SINAI, published 2015)
# T1: paired immunoglobulin-like receptor B (PirB) (mouse, UniProt P97484 25-841)
# T1 construct: whole, on cells
# T1 sequence (looked up): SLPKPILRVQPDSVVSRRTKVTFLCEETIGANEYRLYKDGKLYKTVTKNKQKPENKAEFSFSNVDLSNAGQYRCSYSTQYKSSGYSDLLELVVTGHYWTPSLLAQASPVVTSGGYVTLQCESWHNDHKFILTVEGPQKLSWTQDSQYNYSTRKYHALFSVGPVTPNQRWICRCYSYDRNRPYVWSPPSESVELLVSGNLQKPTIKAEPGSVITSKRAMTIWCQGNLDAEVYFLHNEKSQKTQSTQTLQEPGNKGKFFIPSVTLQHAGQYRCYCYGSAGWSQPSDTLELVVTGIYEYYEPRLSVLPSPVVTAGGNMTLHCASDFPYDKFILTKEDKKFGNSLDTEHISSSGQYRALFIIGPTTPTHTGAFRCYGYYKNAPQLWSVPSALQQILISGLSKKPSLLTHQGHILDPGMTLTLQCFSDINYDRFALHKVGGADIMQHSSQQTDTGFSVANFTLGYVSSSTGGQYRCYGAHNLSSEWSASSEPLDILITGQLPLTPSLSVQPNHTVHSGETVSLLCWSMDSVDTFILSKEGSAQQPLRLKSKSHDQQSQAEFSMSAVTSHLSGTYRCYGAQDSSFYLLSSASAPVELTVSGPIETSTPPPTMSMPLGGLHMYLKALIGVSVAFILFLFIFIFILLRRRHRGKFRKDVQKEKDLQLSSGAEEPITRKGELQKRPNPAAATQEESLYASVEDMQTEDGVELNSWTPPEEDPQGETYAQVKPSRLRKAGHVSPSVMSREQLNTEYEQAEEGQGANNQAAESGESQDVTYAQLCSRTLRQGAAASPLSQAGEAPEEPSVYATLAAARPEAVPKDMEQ
# T2: human Angptl-7 with FLAG tag at the C-terminus (human, UniProt O43827 27-346)
# T2 construct: not shown: FLAG tag at the C-terminus
# T2 sequence: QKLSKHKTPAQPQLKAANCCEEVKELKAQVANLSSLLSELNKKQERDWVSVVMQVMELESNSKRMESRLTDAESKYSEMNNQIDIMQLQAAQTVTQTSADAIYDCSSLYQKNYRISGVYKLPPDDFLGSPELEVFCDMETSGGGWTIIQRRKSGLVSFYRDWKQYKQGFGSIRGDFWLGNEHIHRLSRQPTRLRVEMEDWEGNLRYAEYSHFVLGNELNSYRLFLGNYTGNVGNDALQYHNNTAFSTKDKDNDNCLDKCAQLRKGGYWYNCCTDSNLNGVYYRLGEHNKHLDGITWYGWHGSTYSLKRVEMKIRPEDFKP
# B1: GST-Angptl-5-FLAG, in house, bacterially expressed (ligand)
# chain: NCVHHSTDSSVVNIVEDGSNAKDESKSNDTVCKEDCEESCDVKTKITREEKHFMCRNLQNSIVSYTRSTKKLLRNMMDEQQASLDYLSNQVNELMNRVLLLTTEVFRKQLDPFPHRPVQSHGLDCTDIKDTIGSVTKTPSGLYIIHPEGSSYPFEVMCDMDYRGGGWTVIQKRIDGIIDFQRLWCDYLDGFGDLLGEFWLGLKKIFYIVNQKNTSFMLYVALESEDDTLAYASYDNFWLEDETRFFKMHLGRYSGNAGDAFRGLKKEDNQNAMPFSTSDVDNDGCRPACLVNGQSVKSCSHLHNKTGWWFNECGLANLNGIHHFSGKLLATGIQWGTWTKNNSPVKIKSVSMKIRRMYNPYFK
# notes: also called GST-A5 (in house, bacterial); GST-A5-FLAG; not shown: glutathione S-transferase (GST) tag at the N-terminus (pGEX vector); FLAG tag at the C-terminus
# B2: GST-Angptl-5 (purified, purchased from Abnova) (ligand)
# chain: NCVHHSTDSSVVNIVEDGSNAKDESKSNDTVCKEDCEESCDVKTKITREEKHFMCRNLQNSIVSYTRSTKKLLRNMMDEQQASLDYLSNQVNELMNRVLLLTTEVFRKQLDPFPHRPVQSHGLDCTDIKDTIGSVTKTPSGLYIIHPEGSSYPFEVMCDMDYRGGGWTVIQKRIDGIIDFQRLWCDYLDGFGDLLGEFWLGLKKIFYIVNQKNTSFMLYVALESEDDTLAYASYDNFWLEDETRFFKMHLGRYSGNAGDAFRGLKKEDNQNAMPFSTSDVDNDGCRPACLVNGQSVKSCSHLHNKTGWWFNECGLANLNGIHHFSGKLLATGIQWGTWTKNNSPVKIKSVSMKIRRMYNPYFK
# notes: Bought fusion protein; Used radio-iodinated in the liquid-phase assay; also called GST-A5 (Abnova); ^125I-GST-Angptl-5; not shown: glutathione S-transferase (GST) tag at the N-terminus
# B3: human Angptl-3 with FLAG tag at the C-terminus (ligand)
# chain: DQDNSSFDSLSPEPKSRFAMLDDVKILANGLLQLGHGLKDFVHKTKGQINDIFQKLNIFDQSFYDLSLQTSEIKEEEKELRRTTYKLQVKNEEVKNMSLELNSKLESLLEEKILLQQKVKYLEEQLTNLIQNQPETPEHPEVTSLKTFVEKQDNSIKDLLQTVEDQYKQLNQQHSQIKEIENQLRRTSIQEPTEISLSSKPRAPRTTPFLQLNEIRNVKHDGIPAECTTIYNRGEHTSGMYAIRPSNSQVFHVYCDVISGSPWTLIQHRIDGSQNFNETWENYKYGFGRLDGEFWLGLEKIYSIVKQSNYVLRIELEDWKDNKHYIEYSFYLGNHETNYTLHLVAITGNVPNAIPENKDLVFSTWDHKAKGHFNCPEGYSGGWWWHDECGENNLNGKYNKPRAKSKPERRRGLSWKSQNGRLYSIKSTKMLIHPTDSESFE
# notes: not shown: FLAG tag at the C-terminus
# B4: GST-Angptl-3 (ligand)
# chain: SRIDQDNSSFDSLSPEPKSRFAMLDDVKILANGLLQLGHGLKDFVHKTKGQINDIFQKLNIFDQSFYDLSLQTSEIKEEEKELRRTTYKLQVKNEEVKNMSLELNSKLESLLEEKILLQQKVKYLEEQLTNLIQNQPETPEHPEVTSLKTFVEKQDNSIKDLLQTVEDQYKQLNQQHSQIKEIENQLRRTSIQEPTEISLSSKPRAPRTTPFLQLNEIRNVKHDGIPAECTTIYNRGEHTSGMYAIRPSNSQVFHVYCDVISGSPWTLIQHRIDGSQNFNETWENYKYGFGRLDGEFWLGLEKIYSIVKQSNYVLRIELEDWKDNKHYIEYSFYLGNHETNYTLHLVAITGNVPNAIPENKDLVFSTWDHKAKGHFNCPEGYSGGWWWHDECGENNLNGKYNKPRAKSKPERRRGLSWKSQNGRLYSIKSTKMLIHPTDSESFE
# notes: also called GST-Angptls-FLAG (Angptl-3); not shown: glutathione S-transferase (GST) tag (pGEX vector); FLAG tag (GST-Angptls-FLAG)
# B5: LILRA2 (receptor, UniProt Q8N149 24-483, looked up)
# chain: GHLPKPTLWAEPGSVIIQGSPVTLRCQGSLQAEEYHLYRENKSASWVRRIQEPGKNGQFPIPSITWEHAGRYHCQYYSHNHSSEYSDPLELVVTGAYSKPTLSALPSPVVTSGGNVTLQCVSQVAFDGFILCKEGEDEHPQRLNSHSHARGWSWAIFSVGPVSPSRRWSYRCYAYDSNSPYVWSLPSDLLELLVPGVSKKPSLSVQPGPMVAPGESLTLQCVSDVGYDRFVLYKEGERDFLQRPGWQPQAGLSQANFTLGPVSPSHGGQYRCYSAHNLSSEWSAPSDPLDILITGQFYDRPSLSVQPVPTVAPGKNVTLLCQSRGQFHTFLLTKEGAGHPPLHLRSEHQAQQNQAEFRMGPVTSAHVGTYRCYSSLSSNPYLLSLPSDPLELVVSEAAETLSPSQNKTDSTTTSLGQHPQDYTVENLIRMGVAGLVLVVLGILLFEAQHSQRSLQDAAGR
# notes: whole, on cells
# B6: mouse LAIR1 (receptor, UniProt Q8BG84 22-263, looked up)
# chain: QEGSLPDITIFPNSSLMISQGTFVTVVCSYSDKHDLYNMVRLEKDGSTFMEKSTEPYKTEDEFEIGPVNETITGHYSCIYSKGITWSERSKTLELKVIKENVIQTPAPGPTSDTSWLKTYSIYIFTVVSVIFLLCLSALLFCFLRHRQKKQGLPNNKRQQQRPEERLNLATNGLEMTPDIVADDRLPEDRWTETWTPVAGDLQEVTYIQLDHHSLTQRAVGAVTSQSTDMAESSTYAAIIRH
# notes: whole, on cells
# B7: human Angptl-2 with FLAG tag at the C-terminus, mammalian-expressed (ligand, not shown: small tags and cut ends)
# chain: QEDGFEGTEEGSPREFIYLNRYKRAGESQDKCTYTFIVPQQRVTGAICVNSKEPEVLLENRVHKQELELLNNELLKQKRQIETLQQLVEVDGGIVSEVKLLRKESRNMNSRVTQLYMQLLHEIIRKRDNALELSQLENRILNQTADMLQLASKYKDLEHKYQHLATLAHNQSEIIAQLEEHCQRVPSARPVPQPPPAAPPRVYQPPTYNRIINQISTNEIQSDQNLKVLPPPLPTMPTLTSLPSSTDKPSGPWRDCLQALEDGHDTSSIYLVKPENTNRLMQVWCDQRHDPGGWTVIQRRLDGSVNFFRNWETYKQGFGNIDGEYWLGLENIYWLTNQGNYKLLVTMEDWSGRKVFAEYASFRLEPESEYYKLRLGRYHGNAGDSFTWHNGKQFTTLDRDHDVYTGNCAHYQKGGWWYNACAHSNLNGVWYRGGHYRSRYQDGVYWAEFRGGSYSLKKVVMMIRPNPNTFH
# notes: also called Angptl-2-FLAG; A2-Flag (mammalian)
# What was measured:
# [1] = biological target: T1, paired immunoglobulin-like receptor B …; assay: flow cytometry, PirB-transfected 293T cells, GST-Angptl-5-FLAG according to the legend, Angptl binding against PirB staining; left gate of the same panel 46; Control panel 123 (left) and 183 (right)
# Method: (§1) Plasmids and proteins. […] Angptl-2-FLAG was purified using M2 resin. Purified GST-Angptl-5 was purchased from Abnova. Bacterially-expressed Flag-Angptl-2 and Angptl-2-Flag were constructed in pET-26b(+) vector, and GST-Angptls-FLAG in pGEX vector, and expressed and purified from bacteria. […] Anti-LILRB2-PE was used as indicated. The cells were analyzed using either a FACSCalibur or FACSAria instrument (Becton Dickinson).
# LILRA4 = biological target: T3, LILRA4 (UniProt P59901 24-499, limits assumed); assay: flow cytometry on transfected 293T cells
# T3 construct: whole, on cells
# Method: as §1
# LILRB1 = biological target: T4, LILRB1 (human, UniProt Q8NHL6 24-650); assay: flow cytometry on transfected 293T cells
# T4 construct: also called leukocyte immunoglobulin-like receptor B1
# Method: as §1
# LILRB3 = biological target: T5, LILRB3 (human, UniProt O75022 24-631); assay: flow cytometry on transfected 293T cells
# T5 construct: also called leukocyte immunoglobulin-like receptor B3
# Method: as §1
# LILRB5 = biological target: T6, LILRB5 (human, UniProt O75023 24-590); assay: flow cytometry on transfected 293T cells
# T6 construct: also called leukocyte immunoglobulin-like receptor B5
# Method: as §1
# LILRA1 = biological target: T7, LILRA1 (UniProt O75019 17-489, limits assumed); assay: flow cytometry on transfected 293T cells
# T7 construct: whole, on cells
# Method: as §1
# LILRA2 = biological target: B5; assay: flow cytometry on transfected 293T cells
# Method: as §1
# [2] = biological target: T1, paired immunoglobulin-like receptor B …; assay: flow cytometry on PirB-transfected 293T cells
# Method: as §1
# human LILRB2 = biological target: T8, human LILRB2 (human, UniProt Q8N423 22-597); assay: flow cytometry on human cord blood LILRB2+ cells
# T8 construct: also called leukocyte immunoglobulin-like receptor B2
# Method: as §1
# [3] = biological target: B7; assay: flow cytometry on transfected 293T cells
# Method: as §1
# [4] = biological target: T2, human Angptl-7 with FLAG tag at the …; assay: flow cytometry, 293T cells transfected with mouse LAIR1, anti-FLAG-APC against anti-LAIR1-PE; left gate of the same panel 56; Control panel 14 (left) and 15 (right)
# Method: as §1
# T7 sequence (O75019 17-489 limits assumed): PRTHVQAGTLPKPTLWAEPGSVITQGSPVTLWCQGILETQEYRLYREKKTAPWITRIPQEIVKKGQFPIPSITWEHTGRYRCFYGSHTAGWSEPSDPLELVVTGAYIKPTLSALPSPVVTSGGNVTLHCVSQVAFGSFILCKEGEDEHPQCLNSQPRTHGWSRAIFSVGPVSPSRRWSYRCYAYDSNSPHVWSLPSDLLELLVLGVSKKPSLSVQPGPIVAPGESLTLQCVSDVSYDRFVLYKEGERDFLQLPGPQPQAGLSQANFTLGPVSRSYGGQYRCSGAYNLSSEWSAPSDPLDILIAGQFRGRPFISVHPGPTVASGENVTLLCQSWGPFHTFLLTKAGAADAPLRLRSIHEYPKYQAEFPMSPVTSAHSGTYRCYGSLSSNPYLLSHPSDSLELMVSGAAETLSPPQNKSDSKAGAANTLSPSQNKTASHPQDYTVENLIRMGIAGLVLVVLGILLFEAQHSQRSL
# T3 sequence (P59901 24-499 limits assumed): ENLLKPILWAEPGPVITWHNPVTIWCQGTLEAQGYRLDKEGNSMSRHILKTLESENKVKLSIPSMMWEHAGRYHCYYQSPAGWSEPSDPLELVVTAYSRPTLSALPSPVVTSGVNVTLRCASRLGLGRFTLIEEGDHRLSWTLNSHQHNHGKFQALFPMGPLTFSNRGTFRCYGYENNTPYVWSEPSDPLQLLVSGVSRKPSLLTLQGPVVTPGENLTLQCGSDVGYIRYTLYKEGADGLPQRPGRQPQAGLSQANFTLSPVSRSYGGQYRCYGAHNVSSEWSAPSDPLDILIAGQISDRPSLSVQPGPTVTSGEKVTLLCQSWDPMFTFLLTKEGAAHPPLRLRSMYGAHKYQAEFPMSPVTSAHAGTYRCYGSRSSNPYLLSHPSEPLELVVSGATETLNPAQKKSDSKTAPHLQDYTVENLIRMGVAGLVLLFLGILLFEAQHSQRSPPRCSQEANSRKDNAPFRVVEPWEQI
# T4 sequence (Q8NHL6 other isoform, or with tags, fused parts or gaps limits assumed): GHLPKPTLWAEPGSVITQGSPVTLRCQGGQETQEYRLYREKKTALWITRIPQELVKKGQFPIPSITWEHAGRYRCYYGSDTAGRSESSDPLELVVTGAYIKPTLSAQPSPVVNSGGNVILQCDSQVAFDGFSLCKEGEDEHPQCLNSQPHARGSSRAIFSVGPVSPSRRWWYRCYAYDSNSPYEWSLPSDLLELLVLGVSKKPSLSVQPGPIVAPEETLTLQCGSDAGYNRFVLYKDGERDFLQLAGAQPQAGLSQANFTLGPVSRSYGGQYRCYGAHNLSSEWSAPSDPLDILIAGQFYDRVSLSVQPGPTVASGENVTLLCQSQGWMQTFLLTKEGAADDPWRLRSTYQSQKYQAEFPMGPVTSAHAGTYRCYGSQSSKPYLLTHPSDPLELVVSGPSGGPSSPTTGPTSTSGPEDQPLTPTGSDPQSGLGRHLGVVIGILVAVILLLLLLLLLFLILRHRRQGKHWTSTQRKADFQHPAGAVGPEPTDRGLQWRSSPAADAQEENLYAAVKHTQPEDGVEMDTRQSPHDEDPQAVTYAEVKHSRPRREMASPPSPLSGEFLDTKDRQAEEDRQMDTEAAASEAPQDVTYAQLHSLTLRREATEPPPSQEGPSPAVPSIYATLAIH
# T5 sequence (O75022 other isoform, or with tags, fused parts or gaps limits assumed): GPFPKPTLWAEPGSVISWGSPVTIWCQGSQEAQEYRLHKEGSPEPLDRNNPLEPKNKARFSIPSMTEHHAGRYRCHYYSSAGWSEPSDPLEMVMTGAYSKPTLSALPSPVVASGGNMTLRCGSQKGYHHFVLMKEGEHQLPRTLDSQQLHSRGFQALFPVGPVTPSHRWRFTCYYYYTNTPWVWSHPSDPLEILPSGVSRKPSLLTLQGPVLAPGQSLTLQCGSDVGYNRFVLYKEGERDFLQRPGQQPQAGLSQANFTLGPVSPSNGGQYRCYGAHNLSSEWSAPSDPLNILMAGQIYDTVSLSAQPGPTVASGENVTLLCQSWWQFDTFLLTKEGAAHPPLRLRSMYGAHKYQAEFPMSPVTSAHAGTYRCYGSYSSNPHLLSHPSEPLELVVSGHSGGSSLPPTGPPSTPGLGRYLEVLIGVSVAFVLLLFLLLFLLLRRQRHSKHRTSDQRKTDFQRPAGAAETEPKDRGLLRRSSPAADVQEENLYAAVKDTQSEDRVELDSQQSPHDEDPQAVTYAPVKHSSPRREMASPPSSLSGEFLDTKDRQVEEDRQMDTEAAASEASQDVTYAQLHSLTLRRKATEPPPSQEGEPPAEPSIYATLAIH
# T6 sequence (O75023 other isoform, or with tags, fused parts or gaps limits assumed): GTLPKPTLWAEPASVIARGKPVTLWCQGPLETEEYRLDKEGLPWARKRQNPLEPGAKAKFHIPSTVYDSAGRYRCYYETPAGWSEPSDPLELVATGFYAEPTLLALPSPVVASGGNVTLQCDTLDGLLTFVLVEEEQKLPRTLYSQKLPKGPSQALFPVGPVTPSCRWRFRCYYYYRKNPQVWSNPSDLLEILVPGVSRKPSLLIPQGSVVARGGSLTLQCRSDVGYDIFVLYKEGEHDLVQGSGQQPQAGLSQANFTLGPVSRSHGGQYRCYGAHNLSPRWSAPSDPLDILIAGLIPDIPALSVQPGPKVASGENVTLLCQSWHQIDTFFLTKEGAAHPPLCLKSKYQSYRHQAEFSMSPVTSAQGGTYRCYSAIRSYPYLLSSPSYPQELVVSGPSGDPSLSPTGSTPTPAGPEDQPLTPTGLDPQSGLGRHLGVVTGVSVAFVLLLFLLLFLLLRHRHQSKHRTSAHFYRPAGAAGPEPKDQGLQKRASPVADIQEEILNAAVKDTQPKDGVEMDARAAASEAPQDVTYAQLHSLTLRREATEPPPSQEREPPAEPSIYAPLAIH
# T8 sequence (Q8N423 22-597 D161E/M235V limits assumed): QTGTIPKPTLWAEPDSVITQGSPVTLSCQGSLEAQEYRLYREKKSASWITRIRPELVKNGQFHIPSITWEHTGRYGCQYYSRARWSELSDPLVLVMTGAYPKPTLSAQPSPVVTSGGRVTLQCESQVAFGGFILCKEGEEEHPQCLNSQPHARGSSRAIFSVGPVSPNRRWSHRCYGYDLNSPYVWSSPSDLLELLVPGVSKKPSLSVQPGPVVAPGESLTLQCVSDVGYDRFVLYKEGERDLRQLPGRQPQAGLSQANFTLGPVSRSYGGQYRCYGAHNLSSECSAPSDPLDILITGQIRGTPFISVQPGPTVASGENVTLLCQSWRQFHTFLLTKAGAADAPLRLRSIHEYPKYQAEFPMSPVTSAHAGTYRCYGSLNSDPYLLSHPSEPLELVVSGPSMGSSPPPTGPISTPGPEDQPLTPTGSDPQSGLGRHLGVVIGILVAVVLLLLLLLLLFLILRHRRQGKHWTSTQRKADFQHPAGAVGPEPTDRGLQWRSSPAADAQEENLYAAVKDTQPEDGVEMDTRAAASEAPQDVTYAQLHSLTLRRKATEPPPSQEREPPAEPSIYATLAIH
binder,measurement,setting,value
B1,binding result,[1],binds
B2,binding result,LILRA4,no binding
same,binding result,LILRB1,no binding
same,binding result,LILRB3,binds
same,binding result,LILRB5,binds
same,binding result,LILRA1,no binding
same,binding result,LILRA2,no binding
same,binding result,[2],binds
B3,binding result,[2],binds
B4,binding result,human LILRB2,binds
B5,binding result,[3],no binding
B6,binding result,[4],binds
B7,binding result,LILRA4,no binding
same,binding result,LILRB1,no binding
same,binding result,LILRA1,no binding
